Numbering of substitutions follows the chain as printed.
B1: ISRE (SPR) (dsDNA)
DNA 1: CAACTGAAACCGAGAAAGC
DNA 2: GCTTTCTCGGTTTCAGTTG
B2: EICE1 (dsDNA)
DNA 1: TAAAAGGAAGTGAAACCAAG
DNA 2: CTTGGTTTCACTTCCTTTTA
B3: AICE2 (dsDNA)
DNA 1: GAGGTTTCGGGATGACTAATACT
DNA 2: AGTATTAGTCATCCCGAAACCTC
B4: AICE1 (dsDNA)
DNA 1: TAGTGCAGAAATGAGTCAGAGA
DNA 2: TCTCTGACTCATTTCTGCACTA

Experiments:
Test in all cases: SPR
IRF4 DBD K59A = target: T1, IRF4 DBD K59A (human, UniProt Q15306 21-130, K59A)
T1 sequence: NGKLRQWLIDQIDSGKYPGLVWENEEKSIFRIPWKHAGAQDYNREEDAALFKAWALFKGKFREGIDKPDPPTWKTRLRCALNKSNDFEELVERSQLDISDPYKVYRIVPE

IRF4 DBD WT = target: T2, IRF4 DBD WT (human, UniProt Q15306 21-130)
T2 sequence: T1 sequence with A39K

IRF4 DBD L116R = target: T3, IRF4 DBD L116R (human, UniProt Q15306 21-130, L116R)
T3 sequence: T1 sequence with A39K, L96R

Binder	Kd (IRF4 DBD K59A)	Kd (IRF4 DBD WT)	Kd (IRF4 DBD L116R)
B1	660 ± 100 nM	250 ± 150 nM	60 ± 40 nM
B2		260 ± 70 nM	60 ± 60 nM
B3		1380 ± 510 nM	
B4		2800 ± 480 nM	2210 ± 30 nM
